Measurements reported in patent publication US6800481B1, “Stable macroscopic membranes formed by self-assembly of amphiphilic peptides and uses therefor” (priority 1992, dated 2004).
Entries after “also recorded” stand apart in the source; their conditions may differ.

B1: zuotin: 433 amino acid yeast putative Z-DNA binding protein, SEQ ID NO: 2 (protein)
chain: MFSLPTLTSDITVEVNSSATKTPFVRRPVEPVGKFFLQHAQRTLRNHTWSEFERIEAEKNVKTVDESNVDPDELLFDTELADEDLLTHDARDWKTADLYAAMGLSKLRFRATESQIIKAHRKQVVKYHPDKQSAAGGSLDQDGFFKIIQKAFETLTDSNKRAQYDSCDFVADVPPPKKGTDYDFYEAWGPVFEAEARFSKKTPIPSLGNKDSSKKEVEQFYAFWHRFDSWRTFEFLDEDVPDDSSNRDHKRYIERKNKAARDKKKTADNARLVKLVERAVSEDPRIKMFKEEEKKEKERRKWEREAGARAEAEAKAKAEAEAKAKAESEAKANASAKADKKKAKEAAKAAKKKNKRAIRNSAKEADYFGDADKATTIDEQVGLIVDSLNDEELVSTADKIKANAAGAKEVLKESAKTIVDSGKLPSSLLSYFV
B2: bacterially expressed zuotin: zuotin expressed in E. coli with T7 pET system, Phe→Val after Met (protein, UniProt P32527 1-433, looked up, variant F2V)
Zuotin: MVSLPTLTSDITVEVNSSATKTPFVRRPVEPVGKFFLQHAQRTLRNHTWSEFERIEAEKNVKTVDESNVDPDELLFDTELADEDLLTHDARDWKTADLYAAMGLSKLRFRATESQIIKAHRKQVVKYHPDKQSAAGGSLDQDGFFKIIQKAFETLTDSNKRAQYDSCDFVADVPPPKKGTDYDFYEAWGPVFEAEARFSKKTPIPSLGNKDSSKKEVEQFYAFWHRFDSWRTFEFLDEDVPDDSSNRDHKRYIERKNKAARDKKKTADNARLVKLVERAVSEDPRIKMFKEEEKKEKERRKWEREAGARAEAEAKAKAEAEAKAKAESEAKANASAKADKKKAKEAAKAAKKKNKRAIRNSAKEADYFGDADKATTIDEQVGLIVDSLNDEELVSTADKIKANAAGAKEVLKESAKTIVDSGKLPSSLLSYFV

What was measured:
[1] = Testing of peptides for macroscopic membrane formation (phase-contrast microscope, Congo Red staining); assay type: physicochemical; settings: for formation of macroscopic membranes: identical conditions, in words; for membranous structure in DMEM: DMEM medium
Description: The effect of length and sequence on membrane formation was examined using several peptides (Table 1 and Example 3). […] Very long peptides, e.g., of about 200 amino acids, may encounter problems due to insolubility and intramolecular interactions which destabilize membrane formation. […] The optimal lengths for membrane formation will probably vary with the amino acid composition.
The EAK12 and EAK16 tested for membrane formation were acetylated and aminylated at both N- and C-terminal ends. […] The peptides were initially dissolved in water (5 mg/ml) or in 23% acetonitrile (10 mg/ml). A volume of 5-10 microliters of the dissolved peptides were applied to the DMEM medium, PBS or water. The formation of the membrane was first observed under a phase-contrast microscope and then, by the naked eye after staining with Congo Red.

[2] = assay type: physicochemical
Method: Circular dichroism (CD) spectra were taken on an Aviv Model 60DS spectropolarimeter using program 60HDS for data processing. Because EAK16 contains both positively and negatively charged residues, the peptide itself can serve as a buffer. CD samples were prepared and measured at 25° C., unless otherwise indicated. All reagents were ultrapure and solutions were filtered through a […] before use. Circular dichroism (CD) spectroscopy was used to monitor the stability of the β-sheet structure of EAK16 under various conditions. Dilute […] concentrations. […] A 3 mM stock EAK16 solution was mixed in water to a concentration of 20 μM, allowed to equilibrate, and the CD spectrum measured. The solution was then diluted five times by two-fold serial dilutions to final concentrations of […], 10, 5.0, 2.5, 1.25 and 0.625 μM, allowed to equilibrate and CD spectra taken. […] Temperature. The CD spectra of 8 μM EAK16 at 25, 37, 55, 70 and 90° C. in water were measured. […] EAK16 has a calculated pI Of 6.71. It was assumed that changes of pH would have a great effect on the β-sheet structure, especially when the charged groups are neutralized. […] The 3 mM stock solution of EAK16 was mixed with pH buffers at pH 1.5, 3, 7, and 11 to a final concentration of 10 μM and allowed to equilibrate for 4 hours before taking CD measurements. […] Chemical denaturants. […] The peptide (3 mM stock) was mixed with water or different concentrations of guanidine-HCl or urea and allowed to incubate overnight before taking CD measurements. SDS was added to a peptide solution to a final concentration of 0.1% and incubated for 30 minutes.

[3] = system: B-DNA; assay: Binding of small peptides to B-DNA and conversion to the Z conformation; assay type: biochemical
Description: A subportion of this histone-like region from amino acids 306 to 339 (heavily underlined in FIG. 1) is a likely candidate for a DNA-binding domain. […] The KAKAX motif (SEQ ID NO: 31) (where X is variable) occurs twice in the 306-339 region and also occurs in the peptide, EAK16. These observations are consistent with the structural similarity of this region to histone H1.

[4] = system: poly(dG-m^5dC) in the Z-form; assay: Gel retardation (band shift) and competition assay for Z-DNA binding; settings: for competition of binding to poly(dG-m^5dC) by non-Z DNA: excess poly(dG-dC), poly(dA-dT), salmon sperm DNA; for affinity for Z-DNA relative to B-DNA: not purified to homogeneity, estimated
Description: Two probes that can be stabilized in the Z-form were used to detect potential Z-DNA binding proteins. One is an ˜600 bp fragment of ^32P-labelled poly(dG-m^5dC) that is stabilized in the Z-DNA form by millimolar concentrations of MgCl2 (Behe and Felsenfeld, 1981); the other is an oligonucleotide, [^32P] (dG-BR^5dC)22, that can be stabilized by millimolar concentrations of MgCl2 or μM concentrations of Co(NH3)6^3+. Yeast whole cell extract, nuclear extracts, and phosphocellulose column fractions of yeast nuclear extracts were assayed by a gel retardation assay using either of these ^32P-labelled DNA fragments as a probe. The gel retardation assay was carried out with the probe in the presence of 10 mM MgCl2 and a 400-fold excess of sheared salmon sperm B-DNA. Under these conditions, the polymer assumes the Z-DNA conformation. A Z-DNA-specific antibody was used for positive control. 1 μl of each fraction of yeast nuclear extract obtained by salt elution from the phosphocellulose column with 0.2-0.5 M potassium phosphate (pH 7.4) was added to the assays.
In order to determine if these band shifts were the result of authentic Z-DNA binding, negatively supercoiled plasmids of pUC19 and pUC19(GC) were used as competitor DNAs in gel retardation competition assays. In these assays, [^32P] (dG-Br^5dC)22 was incubated in the presence of a 2000-fold excess of sheared salmon sperm DNA with additions as follows: 1) no addition; 2) a monoclonal anti-Z-DNA antibody (mAb); 3) mAb plus additional 50 ng of negatively supercoiled plasmid pUC19 (without a Z-DNA insert); 4) mAb plus 25 ng of negatively supercoiled pUC19(CG) (containing a Z-DNA segment); 5) fraction F1 yeast protein; 6) F1 plus additional 50 ng pUC19; and 7) F1 plus pUC19(GC). pUC19(GC) contains a 14 bp (dG-dC)7 insert that can adopt the Z-conformation upon negative supercoiling. pUC19(GC) was assayed for its resistance to BssHII digestion (Vardimon and Rich, 1983; Azorin et al., 1984) to confirm the presence of the Z-DNA prior to the assay.
However, enough material was in solution so that crude cell extracts and partially purified zuotin could be prepared and assayed by the band shift assay. Recombinant zuotin was partially purified by chromatography of crude cell extract from induced pETZU01 transformants through phosphocellulose. ^32P-labelled poly(dG-m5dC) in the Z-form was incubated with the crude cell extract or with partially purified zuotin in the presence of sheared salmon sperm DNA, poly(dG-dC), or poly(dG-Br^5dC). Assays were run on: 1) labelled probe alone; 2) crude cell extract from induced pET8c transformants; 3) crude cell extract from uninduced pETZU01 transformants; 4) crude cell extract from induced pETZU01 transformants; 5) partially purified recombinant zuotin; 6) partially purified yeast zuotin; 7)-10) partially purified recombinant zuotin with 20-, 40-, 100-, and 200-fold excess of salmon sperm DNA; 11)-12) partially purified recombinant zuotin with 20- and 40-fold excess of poly(dG-dC); 13)-14) partially purified recombinant zuotin with 20- and 40-fold excess of poly(dG-Br^5dC); 15)-17) partially purified yeast zuotin with 20-, 40-, and 200-fold excess of salmon sperm DNA; 18) partially purified yeast zuotin with 40-fold excess of poly(dG-dC); 19) partially purified yeast zuotin with 40-fold excess of poly(dG-Br^5dC); and 20) an anti-Z-antibody (as control).
A gel retardation assay was employed to detect proteins with affinity to left-handed Z-DNA. […]

Row | Molecule | membranous structure in PBS [1] | formation of macroscopic membranes [1] | membranous structure in Water [1] | membranous structure in DMEM [1] | binding to B-DNA and conversion to Z-DNA [3] | also measured
1 | Ac-HN-AEAKAEAEAKAK-CONH2 (Ac-AEAKAEAEAKAK-NH2) [EAK12] | + | able to associate to a much smaller extent and formed small and non-uniform pieces of membranous material | − |  |  | secondary structure and its stability [2]: denature from a β-sheet structure at high temperatures; Structure ([2]; secondary structure): α, β
2 | H2N-AEAEAKAK-COOH (H-AEAEAKAK-OH) [EAK8] | − | did not form membranes | − | − |  | secondary structure and its stability [2]: random coil structure
3 | H2N-ARARADAD-COOH (H-ARARADAD-OH) [ARD8, 8 amino acid counterpart of RAD16] | − | did not form macroscopic membranes | − | − |  | 
4 | H2N-GSNKGAIIGLM-CONH2 (H-GSNKGAIIGLM-NH2) [β-Amyloid (25-35), reference compound] | − | None of these peptides produced macroscopic membranes | − | − |  | 
5 | H2N-RPKQQFGLM-COHN2 (H-RPKQQFGLM-NH2) [Substance p, reference compound] | − | None of these peptides produced macroscopic membranes | − | − |  | 
6 | KAHAK |  |  |  |  | active in converting B-DNA to Z-DNA only when the histidine was protonated (at low pH) | 
7 | KAK |  |  |  |  | able to bind to B-DNA and convert it to the Z conformation | 
8 | KAKAK |  |  |  |  | able to bind to B-DNA and convert it to the Z conformation | 
9 | B1 |  |  |  |  |  | excess of poly(dG-Br^5dC) in the Z-form that completely inhibits binding to the probe [4]: 4 fold; competition of binding to poly(dG-m^5dC) by non-Z DNA [4]: cannot be competed by 40-fold excess of poly(dG-dC), 200-fold excess of poly(dA-dT), nor several thousand-fold of salmon sperm DNA; affinity for Z-DNA relative to B-DNA ([4]; listed as yeast zuotin): bound Z-DNA more tightly than the bacterially expressed zuotin; also recorded: several hundred-fold enhanced affinity for Z-DNA relative to B-DNA
10 | B2 |  |  |  |  |  | competition of binding to poly(dG-m^5dC) by non-Z DNA [4]: cannot be competed by 40-fold excess of poly(dG-dC), 200-fold excess of poly(dA-dT), nor several thousand-fold of salmon sperm DNA; affinity for Z-DNA relative to B-DNA [4]: binds less tightly
